Data: US20250154240A1, “ANTI-HUMAN CXCL1 ANTIBODY” (CHIOME BIOSCIENCE INC., priority 2022, published 2025)

Columns and labels:
HuCXCL1 = molecular target: T1, HuCXCL1 (Homo sapiens, UniProt P09341); assay: HuCXCL1 binding activity, antigen-immobilized ELISA; details: HuCXCL1 immobilized at 3 μg/mL
T1 construct: made in house; host or cells: Expi293 expression system (transient), protein from the culture supernatant
T1 sequence (P09341 35-107): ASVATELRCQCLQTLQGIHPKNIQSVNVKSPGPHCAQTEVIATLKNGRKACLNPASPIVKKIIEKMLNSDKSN
Experimental: Antibodies produced from the hybridomas were evaluated for their HuCXCL1 binding activity by ELISA assay using plates on which the antigen (HuCXCL1 protein) used for immunization had been directly immobilized.
To 96-well plates, phosphate-buffered saline (PBS) containing 3 μg/mL of HuCXCL1 was added in a volume of 50 μL per well, and the plates were allowed to stand overnight at 4° C. After removal of the antigen solution, PBS containing 2% skimmed milk and 0.05% Tween-20 (hereinafter referred to as the blocking solution) was added to each well for blocking reaction, and the plates were allowed to stand at room temperature for 1 hour. After removal of the blocking solution, the culture supernatants of the hybridomas or DT40 were each added in a volume of 50 µL per well and reacted at room temperature for 1 hour. After removal of the culture supernatants and washing with PBS containing 0.05% Tween-20, an HRP-labeled secondary antibody diluted with the blocking solution was added and reacted at room temperature for 1 hour. After washing, TMB (Dako) was added as a chromogenic substrate solution to cause color development, and after 10 minutes, 1 N sulfuric acid was added to stop the reaction, followed by measurement of absorbance at 450 nm.

CyCXCL1 [1] = assay: Ca2+ Flux assay, CyCXCL1 neutralizing activity in AequoScreen/CXCR2 cells; format: cell-based, cynomolgus monkey; details: CyCXCL1 100 ng per ml; antibody 10 μg per ml
Experimental: For evaluation of neutralizing activity against CyCXCL1, CyCXCL1-induced changes in intracellular calcium ions in AequoScrenn/CXCR2 cells were measured as the luminescence intensity of aequorin.
AequoScrenn/CXCR2 cells were adjusted in the same manner as shown in [2-2] above. After CyCXCL1 was added to 96-well plates in an amount of 100 ng per ml, purified antibodies were each added in an amount of 10 μg per ml, and the plates were allowed to stand at room temperature for 30 minutes. To these plates, the AequoScree/CXCR2 cell suspension was added in a volume of 50 μL per well, immediately followed by measurement of luminescence intensity.
An antibody found to completely suppress CyCXCL1-induced luminescence from aequorin was determined to have cross-reactivity and indicated with “o” while an antibody found to not completely suppress luminescence from aequorin was indicated with “x” in Table A above.
Target sequence in this assay (as listed by the source): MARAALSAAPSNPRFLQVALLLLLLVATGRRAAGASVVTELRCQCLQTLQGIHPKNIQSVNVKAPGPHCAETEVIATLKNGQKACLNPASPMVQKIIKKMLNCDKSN
Target sequence in this assay (P25025 whole entry partner): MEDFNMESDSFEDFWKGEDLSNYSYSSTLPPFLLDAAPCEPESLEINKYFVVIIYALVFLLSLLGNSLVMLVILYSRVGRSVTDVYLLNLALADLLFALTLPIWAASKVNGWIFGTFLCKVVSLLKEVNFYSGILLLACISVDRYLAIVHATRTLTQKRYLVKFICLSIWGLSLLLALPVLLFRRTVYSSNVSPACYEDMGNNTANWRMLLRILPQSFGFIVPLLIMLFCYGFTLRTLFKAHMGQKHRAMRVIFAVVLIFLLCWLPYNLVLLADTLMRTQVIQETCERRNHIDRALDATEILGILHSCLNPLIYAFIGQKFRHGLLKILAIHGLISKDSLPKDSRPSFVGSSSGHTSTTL

CyCXCL1 [2] = assay: CyCXCL1 binding activity ELISA; design: species or system cynomolgus monkey; details: absorbance to CyCXCL1 relative to absorbance to HuCXCL1
Experimental: Binding activity to cynomolgus monkey CXCL1 (CyCXCL1) was evaluated.
The same procedure as shown in [1-1] above was repeated to prepare a CyCXCL1 protein (antigen), except that the amino acid sequence of a HuCXCL1 protein was replaced with the amino acid sequence of a CyCXCL1 protein (Uniprot registration number: QUEAC3; SEQ ID NO: 82).
The evaluation of binding activity to CyCXCL1 was accomplished by ELISA assay. Absorbance was calculated in the same manner as shown in [2-1] above to evaluate antigen-binding activity, except that the protein immobilized on the plates was changed from a HuCXCL1 protein to a CyCXCL1 protein. An antibody whose absorbance to CyCXCL1 was 80% or more of its absorbance to HuCXCL1 was determined to have cross-reactivity and indicated with “o” while an antibody whose absorbance to CyCXCL1 was less than 80% of its absorbance to HuCXCL1 was indicated with “x” in Table A above.
Target sequence in this assay (as listed by the source): as the sequence (as listed by the source) above

B1: 5A-5E11: mouse monoclonal anti-HuCXCL1 antibody clone; VH SEQ ID NO: 17, VL SEQ ID NO: 21 (antibody, listed as Mus musculus, V domains shown)
VH: QVQLQQSGAELVRPGSSVKISCKASGYAFSDYWMNWVKQRPGQGLEWIGQIYPGDGDTNYNGKFKGKGTLTADKSSSTAYMQLNSLTSEDSAVYFCARERDYDVAMDYWGQGTSVTVSS
VL: DIQMTQSPSSLSASLGGKVTITCKASQDINKYIAWFQHKPGKGPRLVIHYTSILQPGIPSRFSGVGSGRDYSFSIRNLEPEDIATYYCLQYDNLPWTFGGGTKLEIK
∘: Binding activity to HuCXCL1 ELISA (HuCXCL1) | CyCXCL1 neutralizing activity Ca^2+ Flux assay (CyCXCL1 [1]) | Binding activity to CyCXCL1 ELISA (CyCXCL1 [2])

B2: 4A-2F7: mouse monoclonal anti-HuCXCL1 antibody clone; VH SEQ ID NO: 9, VL SEQ ID NO: 13 (antibody, listed as Mus musculus, V domains shown)
VH: QVTLKESGPGILKPSQTLSLTCSFSGFSLSTSGMGVDWIRQPSGKGLEWLAHIWWDDDKYYNPSLKSQLTISKDTSRNQVFLKITSVDTADTATYYCARSYGYDMDYYAMDYWGQGTSVTVSS
VL: DIQMTQSPSSLSASLGERVSLTCRASQEISGYLSWLQQKPDGTIKRLIYAASTLDSGVPKRFSGSRSGSDYSLTISSLESEDFADYYCLQYASYPPWTFGGGTKLEIK
∘: Binding activity to HuCXCL1 ELISA (HuCXCL1) | CyCXCL1 neutralizing activity Ca^2+ Flux assay (CyCXCL1 [1]) | Binding activity to CyCXCL1 ELISA (CyCXCL1 [2])

B3: 1A-7H10: mouse monoclonal anti-HuCXCL1 antibody clone; VH SEQ ID NO: 1, VL SEQ ID NO: 5 (antibody, listed as Mus musculus, V domains shown)
VH: QVQLKESGPVLVAPSQSLSITCSVSGFSSTTYGVHWVRQPPGQGLEWLGVIWAGGSTNYNSALMSRLSISKDNSKSQVFLKMNSLQTDDTAMYYCATQYHYPFAYWGQGTLVTVSA
VL: NIVMTQSPKSMSMSVGERVTLSCKASENVGIYVSWYQQKPEQSPKLMIYGASNRNTGVPDRFTGSGSATDFTLTISSVQAEDLADYYCGQSYSYPLTFGAGTKLELK
∘: Binding activity to HuCXCL1 ELISA (HuCXCL1) | CyCXCL1 neutralizing activity Ca^2+ Flux assay (CyCXCL1 [1]) | Binding activity to CyCXCL1 ELISA (CyCXCL1 [2])

B4: 028-8-12: human antibody against CXCL1 from the human ADLib technique; VH SEQ ID NO: 25, VL SEQ ID NO: 29 (antibody, listed as Gallus gallus, V domains shown)
VH: EVQLLESGGGLVQPGGSLRLSCAASGFTFSELSMSWVRQAPGKGLEWVSAISGSGGSTYYADSVKGRFTISRDNSKNTLYLQMNSLRAEDTAVYYCAREGGRLEPYYYYYAMDVWGQGTPVTVSS
VL: DIQMTQSPSSLSASVGDRVTITCRASQSISDNLHWYQQKPGKAPKLLIYDASNLESGVPSRFSGSGSGTDFTLTINSLQPEDFATYYCQQYYSTPLTFGQGTKLEIK
∘: Binding activity to HuCXCL1 ELISA (HuCXCL1) | CyCXCL1 neutralizing activity Ca^2+ Flux assay (CyCXCL1 [1]) | Binding activity to CyCXCL1 ELISA (CyCXCL1 [2])
